Measured values reported in patent US20240409621A1 (XIAMEN UNIVERSITY, published 2024).

B1: monoclonal antibody 7G5 (antibody, V domains shown)
VH: QVQLKESGPGLVAPSQSLSITCTVSGFSLSSYGVHWIRQPPGKGLEWLGVIWAGGSTNYNSALMSRLSISEDNSKSQVFLKMNSLQTDDTAVYYCARKGLVWPAMDYWGQGTSVTVSQ
VL: DIQMTQTTSSLSASLGDRVTISCRASQDISHYLNWYQQKPDGTVKLLIYYTSRLHSGVPSRFSGSGSGTDYSLTIYNLEQEDIATYFCQQGNTLPWTFGGGTKLEIK
B2: monoclonal antibody 6B2 (antibody, V domains shown)
VH: EVQLQQSRPELVKPGASVKISCKASGYSFTAYFMNWVKQSHGKSLEWIGRINPYIGDTFYNQKFKGKATLTVDKSSNTAHMELLSLTSEDSAVYYCGRSEYGNYYFDYWGQGTTLTVSQ
VL: ENVLTQSPAIMSASLGEKVTMSCRASSSVNYMYWYQQKSDASPKLWIYYTSNLAPGVPARFSGSGSGNSYSLTISSMEGEDAATYYCQQFTSSPLTFGAGTKLELK
B3: monoclonal antibody 5B11 (antibody, V domains shown)
VH: QIQLVQSGPELKKPGETVKISCKASGYTFTDYSMHWLKQAPGKGLKWMGWITTETGEPTYADDFKGRFAFSLETSASTAYLQINNLKNEDTGIYFCARYYYGPFYWGQGTLVTVST
VL: DIQMTQSPASLSASVGETVTITCRSSGNIHNFLTWYQQKQGKSPQFLVYNAKTLADGVSSRFSGSGSGTQFSLKINSLQPEDFGIYYCQHFWTTPYTFGGGTKLEIK

What was measured:
Experiment in all cases: cell-based or functional assay
[1] = target: T1, F protein of RSV A2 (on the virus in the neutralization assay) (respiratory syncytial virus, A2 strain, UniProt P03420 26-574)
[2] = target: T1, F protein of RSV A2 (on the virus in …); remark: listed apart in the source
[3] = target: F protein of RSV type B strain 18537 (on the virus in the neutralization assay) (respiratory syncytial virus type B, …, UniProt P13843 26-574)

| Binder | IC50 of each RSV neutralizing antibody, RSV A2 [1] | neutralizing ability against RSV A2, relative to 1129 [2] | neutralizing ability against 18537, relative to 1129 [3] |
| --- | --- | --- | --- |
| B1 | 0.0316 µg/mL |  |  |
| B2 | 0.0949 µg/mL |  |  |
| B3 | 0.0074 µg/mL | 50 times | ~10 times |
